Results: patent US7696175

Assays:
[1] = target: intracellular antigens (TNT) in paraformaldehyde fixed Raji lymphoma cells; test: fixed-cell radioimmunoassay: 125I-labeled fusion protein on paraformaldehyde-fixed Raji lymphoma cells, Scatchard analysis, Ka = -(slope/n) with n = 2
[2] = target: intracellular antigens (TNT) in paraformaldehyde fixed Raji lymphoma cells; test: fixed-cell radioimmunoassay on Raji cells, compared with the literature value for NHS76

- Ka [1]: 2.15e+08 M⁻¹
- affinity relative to parental NHS76 (fold of parental NHS76) [2]: 0.14
Substance: B7.1/NHS76 fusion protein (from UniProt P33681 35-242)
